The text below walks through data of US20060204957A1, “Mta1s, a steriod hormone receptor corepressor” (priority 2002, published 2006).

For the assay, the target named is Estrogen Receptor α (ER) (UniProt P03372). Kind of assay: cell-based or functional assay.
Sequence of Estrogen Receptor α (ER) (P03372 whole entry): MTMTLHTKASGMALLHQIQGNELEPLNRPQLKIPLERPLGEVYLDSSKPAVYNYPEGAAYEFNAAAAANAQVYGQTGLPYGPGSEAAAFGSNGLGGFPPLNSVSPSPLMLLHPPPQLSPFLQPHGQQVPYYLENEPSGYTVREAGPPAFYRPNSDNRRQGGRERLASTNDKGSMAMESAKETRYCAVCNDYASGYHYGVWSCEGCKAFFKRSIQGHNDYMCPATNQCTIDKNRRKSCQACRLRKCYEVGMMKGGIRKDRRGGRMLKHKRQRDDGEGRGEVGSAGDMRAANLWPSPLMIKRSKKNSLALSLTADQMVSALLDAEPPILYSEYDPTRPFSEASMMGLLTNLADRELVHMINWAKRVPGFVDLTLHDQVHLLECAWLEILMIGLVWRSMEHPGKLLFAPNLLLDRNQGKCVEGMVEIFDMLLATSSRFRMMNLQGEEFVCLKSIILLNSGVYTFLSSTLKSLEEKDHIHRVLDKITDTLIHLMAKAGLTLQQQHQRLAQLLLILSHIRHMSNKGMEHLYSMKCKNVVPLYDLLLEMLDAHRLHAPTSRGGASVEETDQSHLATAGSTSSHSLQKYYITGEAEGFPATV

Take MTA1s-del (from UniProt Q13330 1-397): the presence of ERα in the nucleus of estradiol stimulated MCF-7 cells is > 90%.
